# Measurements as given in IntAct's records for PubMed 22164301.
# B1: Protein unc-93 homolog B1 (Homo sapiens), Q9H1C4 (parent)
# chain: MEAEPPLYPMAGAAGPQGDEDLLGVPDGPEAPLDELVGAYPNYNEEEEERRYYRRKRLGVLKNVLAASAGGMLTYGVYLGLLQMQLILHYDETYREVKYGNMGLPDIDSKMLMGINVTPIAALLYTPVLIRFFGTKWMMFLAVGIYALFVSTNYWERYYTLVPSAVALGMAIVPLWASMGNYITRMAQKYHEYSHYKEQDGQGMKQRPPRGSHAPYLLVFQAIFYSFFHLSFACAQLPMIYFLNHYLYDLNHTLYNVQSCGTNSHGILSGFNKTVLRTLPRSGNLIVVESVLMAVAFLAMLLVLGLCGAAYRPTEEIDLRSVGWGNIFQLPFKHVRDYRLRHLVPFFIYSGFEVLFACTGIALGYGVCSVGLERLAYLLVAYSLGASAASLLGLLGLWLPRPVPLVAGAGVHLLLTFILFFWAPVPRVLQHSWILYVAAALWGVGSALNKTGLSTLLGILYEDKERQDFIFTIYHWWQAVAIFTVYLGSSLHMKAKLAVLLVTLVAAAVSYLRMEQKLRRGVAPRQPRIPRPQHKVRGYRYLEEDNSDESDAEGEHGDGAEEEAPPAGPRPGPEPAGLGRRPCPYEQAQGGDGPEEQ
# partner: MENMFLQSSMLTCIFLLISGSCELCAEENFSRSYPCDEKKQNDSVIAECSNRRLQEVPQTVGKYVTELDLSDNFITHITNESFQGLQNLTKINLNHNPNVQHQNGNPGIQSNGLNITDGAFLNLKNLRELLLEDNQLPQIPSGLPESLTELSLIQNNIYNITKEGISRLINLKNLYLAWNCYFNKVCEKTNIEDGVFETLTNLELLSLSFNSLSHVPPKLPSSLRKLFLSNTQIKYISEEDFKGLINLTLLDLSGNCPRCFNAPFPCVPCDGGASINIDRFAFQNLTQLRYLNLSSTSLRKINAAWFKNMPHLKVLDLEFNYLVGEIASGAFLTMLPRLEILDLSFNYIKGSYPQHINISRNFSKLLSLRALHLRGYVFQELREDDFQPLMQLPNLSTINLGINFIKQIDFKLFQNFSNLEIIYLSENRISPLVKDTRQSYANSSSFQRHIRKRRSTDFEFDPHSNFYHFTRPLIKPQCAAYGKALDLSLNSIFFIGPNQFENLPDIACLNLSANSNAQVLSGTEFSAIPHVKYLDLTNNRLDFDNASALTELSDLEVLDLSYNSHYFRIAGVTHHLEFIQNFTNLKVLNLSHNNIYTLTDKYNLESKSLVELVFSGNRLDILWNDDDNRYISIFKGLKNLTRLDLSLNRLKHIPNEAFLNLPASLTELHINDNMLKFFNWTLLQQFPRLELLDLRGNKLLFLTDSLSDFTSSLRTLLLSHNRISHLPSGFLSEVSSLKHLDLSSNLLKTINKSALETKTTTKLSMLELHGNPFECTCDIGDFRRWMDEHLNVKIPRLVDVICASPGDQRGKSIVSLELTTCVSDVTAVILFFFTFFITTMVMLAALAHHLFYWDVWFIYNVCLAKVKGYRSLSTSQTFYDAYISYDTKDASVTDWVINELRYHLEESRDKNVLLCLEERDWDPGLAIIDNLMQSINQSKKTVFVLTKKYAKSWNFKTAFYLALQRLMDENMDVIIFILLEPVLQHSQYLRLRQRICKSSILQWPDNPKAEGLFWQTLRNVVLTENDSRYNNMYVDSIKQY
# B2: Protein unc-93 homolog B1 (Homo sapiens), Q9H1C4 (parent)
# chain: B1 chain
# Variants of: B1
# Details: with tlr8_human TLR8, Q9NR97
row,Variant,effect of a mutation on the interaction
1,MEAEPPLYPMAGAAGPQGDEDLLGVPDGPEAPLDELVGAYPNYNEEEEERRYYRRKRLGVLKNVLAASAGGMLTYGVYLGLLQMQLILHYDETYREVKYGNMGLPDIDSKMLMGINVTPIAALLYTPVLIRFFGTKWMMFLAVGIYALFVSTNYWERYYTLVPSAVALGMAIVPLWASMGNYITRMAQKYHEYSHYKEQDGQGMKQRPPRGSHAPYLLVFQAIFYSFFHLSFACAQLPMIYFLNHYLYDLNHTLYNVQSCGTNSHGILSGFNKTVLRTLPRSGNLIVVESVLMAVAFLAMLLVLGLCGAAYRPTEEIDLRSVGWGNIFQLPFKHVRDYRLRHLVPFFIYSGFEVLFACTGIALGYGVCSVGLERLAYLLVAYSLGASAASLLGLLGLWLPRPVPLVAGAGVRLLLTFILFFWAPVPRVLQHSWILYVAAALWGVGSALNKTGLSTLLGILYEDKERQDFIFTIYHWWQAVAIFTVYLGSSLHMKAKLAVLLVTLVAAAVSYLRMEQKLRRGVAPRQPRIPRPQHKVRGYRYLEEDNSDESDAEGEHGDGAEEEAPPAGPRPGPEPAGLGRRPCPYEQAQGGDGPEEQ [H412R],disrupting interaction strength

# Variants of: B2
# Details: with tlr3_human TLR3, O15455
row,Variant,effect of a mutation on the interaction
1,MEAEPPLYPMAGAAGPQGDEDLLGVPDGPEAPLDELVGAYPNYNEEEEERRYYRRKRLGVLKNVLAASAGGMLTYGVYLGLLQMQLILHYDETYREVKYGNMGLPDIDSKMLMGINVTPIAALLYTPVLIRFFGTKWMMFLAVGIYALFVSTNYWERYYTLVPSAVALGMAIVPLWASMGNYITRMAQKYHEYSHYKEQDGQGMKQRPPRGSHAPYLLVFQAIFYSFFHLSFACAQLPMIYFLNHYLYDLNHTLYNVQSCGTNSHGILSGFNKTVLRTLPRSGNLIVVESVLMAVAFLAMLLVLGLCGAAYRPTEEIDLRSVGWGNIFQLPFKHVRDYRLRHLVPFFIYSGFEVLFACTGIALGYGVCSVGLERLAYLLVAYSLGASAASLLGLLGLWLPRPVPLVAGAGVRLLLTFILFFWAPVPRVLQHSWILYVAAALWGVGSALNKTGLSTLLGILYEDKERQDFIFTIYHWWQAVAIFTVYLGSSLHMKAKLAVLLVTLVAAAVSYLRMEQKLRRGVAPRQPRIPRPQHKVRGYRYLEEDNSDESDAEGEHGDGAEEEAPPAGPRPGPEPAGLGRRPCPYEQAQGGDGPEEQ [H412R],disrupting interaction strength
